Laboratory results published in patent US20190169308A1 (ALLIGATOR BIOSCIENCE, published 2019).

T1: 5T4-Fc (human, UniProt Q13641 32-355, limits assumed)
T1 construct: obtained from Peter L. Stern, University of Manchester; also called h5T4-Fc; recombinant 5T4
T1 sequence (looked up): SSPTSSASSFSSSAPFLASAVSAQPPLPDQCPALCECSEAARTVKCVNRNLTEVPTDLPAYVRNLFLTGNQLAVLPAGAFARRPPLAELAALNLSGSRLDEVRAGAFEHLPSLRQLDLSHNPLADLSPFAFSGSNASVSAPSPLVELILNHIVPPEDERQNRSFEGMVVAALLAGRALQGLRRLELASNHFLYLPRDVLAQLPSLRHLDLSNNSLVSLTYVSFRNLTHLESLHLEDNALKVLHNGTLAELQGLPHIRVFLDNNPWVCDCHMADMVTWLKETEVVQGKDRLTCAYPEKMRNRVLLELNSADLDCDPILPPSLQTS

T2: mouse 5T4 on transfected cells (mouse, UniProt Q9Z0L0 32-426)
T2 construct: whole, on cells; also called murine 5T4
T2 sequence (looked up): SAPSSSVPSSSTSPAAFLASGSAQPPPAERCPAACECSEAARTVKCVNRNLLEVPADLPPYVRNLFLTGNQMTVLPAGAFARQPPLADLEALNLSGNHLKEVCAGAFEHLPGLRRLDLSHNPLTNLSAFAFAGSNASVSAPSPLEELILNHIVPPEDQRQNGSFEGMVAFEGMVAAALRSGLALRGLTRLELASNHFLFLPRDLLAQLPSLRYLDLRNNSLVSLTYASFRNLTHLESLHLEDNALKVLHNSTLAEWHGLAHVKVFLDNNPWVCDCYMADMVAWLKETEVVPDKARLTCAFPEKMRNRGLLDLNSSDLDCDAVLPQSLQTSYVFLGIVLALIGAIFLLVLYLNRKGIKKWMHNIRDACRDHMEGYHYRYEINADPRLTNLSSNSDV

T3: human 5T4 on transfected cells (human, UniProt Q13641 32-420)
T3 construct: whole, on cells; also called B16-5T4; CHOh5T4
T3 sequence (looked up): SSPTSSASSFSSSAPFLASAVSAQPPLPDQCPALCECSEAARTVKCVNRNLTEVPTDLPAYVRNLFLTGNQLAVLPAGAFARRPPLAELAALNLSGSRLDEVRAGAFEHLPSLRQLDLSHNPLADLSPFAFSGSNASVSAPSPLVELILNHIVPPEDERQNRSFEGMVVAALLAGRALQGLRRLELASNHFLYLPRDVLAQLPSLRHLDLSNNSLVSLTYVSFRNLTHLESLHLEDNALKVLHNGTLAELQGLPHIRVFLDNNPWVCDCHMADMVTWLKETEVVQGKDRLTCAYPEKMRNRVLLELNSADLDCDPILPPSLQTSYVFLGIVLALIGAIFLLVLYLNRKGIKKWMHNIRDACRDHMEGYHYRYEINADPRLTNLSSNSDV

T4: cynomolgus 5T4 on transfected CHO cells (Macaca mulatta (cynomolgus), UniProt F7CT46 35-420)
T4 construct: also called cyno5T4; cy5T4
T4 sequence: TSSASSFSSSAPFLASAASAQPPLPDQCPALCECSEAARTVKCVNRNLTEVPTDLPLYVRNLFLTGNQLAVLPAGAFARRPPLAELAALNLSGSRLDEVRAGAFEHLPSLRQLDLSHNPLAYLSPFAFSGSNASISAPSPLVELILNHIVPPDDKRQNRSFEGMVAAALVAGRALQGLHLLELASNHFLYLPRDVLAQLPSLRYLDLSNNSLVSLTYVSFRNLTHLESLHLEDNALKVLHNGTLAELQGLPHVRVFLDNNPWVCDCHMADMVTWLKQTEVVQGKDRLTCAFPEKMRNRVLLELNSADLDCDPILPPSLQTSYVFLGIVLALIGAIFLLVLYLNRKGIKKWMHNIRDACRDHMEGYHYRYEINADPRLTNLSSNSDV

T5: 5T4 (SPR antigen) (UniProt Q13641 32-355, limits assumed, biotinylated on the MASS-1 platform)
T5 construct: also called biotinylated 5T4
T5 sequence (looked up): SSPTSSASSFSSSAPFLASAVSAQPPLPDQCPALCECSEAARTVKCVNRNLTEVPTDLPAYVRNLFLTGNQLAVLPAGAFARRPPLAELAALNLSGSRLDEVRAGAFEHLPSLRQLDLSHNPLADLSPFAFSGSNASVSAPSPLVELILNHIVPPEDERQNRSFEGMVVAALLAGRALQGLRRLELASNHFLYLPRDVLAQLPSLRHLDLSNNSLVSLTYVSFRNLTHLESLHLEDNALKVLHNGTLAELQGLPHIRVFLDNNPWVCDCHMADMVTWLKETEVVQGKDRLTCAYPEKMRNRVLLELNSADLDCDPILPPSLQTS


Tests used:
[1] = target: T1, 5T4-Fc; test: ELISA, coated 5T4-Fc
Method: ELISA was performed using a standard protocol. Plates (#655074, Greiner Bio-One GmbH, Germany) were pre-coated with 0.5 μg/ml 5T4-Fc (obtained from Peter L. Stern, University of Manchester) overnight. 5T4 antibodies were diluted from 6 to 1.5×10⁻³ μg/ml in 1:4 dilutions and added in duplicates of 50 μl to each well. Binding was detected with rabbit anti-h kappa L-chain-HRP (P0129, Dako Denmark) and the ELISA was developed with SuperSignal ELISA PICO Chemiluminescent substrate (Thermo Scientific Pierce, Rockford, Ill. USA) for 2-10 minutes and read in an automated microplate based multi-detection reader (FLUOstar OPTIMA, Netherlands).

[2] = target: T2, mouse 5T4 on transfected cells; test: flow cytometry, mouse 5T4-transfected cells
[3] = target: T3, human 5T4 on transfected cells; test: flow cytometry, 5T4-transfected B16 cells
[4] = target: T4, cynomolgus 5T4 on transfected CHO cells; test: flow cytometry, 5T4-transfected CHO cells
Method: (§1) The potency of 5T4 antibodies in binding to cynomolgus 5T4 was determined by flow cytometry. CHO cells were stably transfected with […] (cynomolgus) 5T4. […] Samples were analysed either on a FACSCalibur or a FACSverse (BD Biosciences, Heidelberg, Germany) and mean fluorescence intensity (MFI) determined. […] To compare the EC50 values between human and cynomolgus 5T4, the cy5T4/hu5T4 ratio was calculated from the experiment with the full dose-response.

[5] = target: T6, human/mouse 5T4 chimera E1; test: flow cytometry, cells with human/mouse 5T4 chimera
T6 construct: on transfected CHO cells
Method: (§2) Epitope mapping was performed by investigation of loss of binding by the antibodies using a panel of human/mouse chimeric 5T4 constructs by flow cytometry. […] Two strategies were used for the epitope mapping as illustrated in FIG. 5. In one approach, seven human/mouse 5T4 chimeras were constructed based on dividing 5T4 into seven different domains (FIG. 5). By replacing each domain with the corresponding mouse sequence seven human/mouse 7 5T4 human/mouse chimeras were generated. The chimeras were generated using the human protein 5T4 sequence NP_006661.1 (reference mRNA sequence NM_006670.4) and the corresponding mouse sequence NP_035757.2 (reference mRNA sequence NM_011627.4). The human/mouse chimeric DNA constructs, as well as human and mouse wild-type 5T4, were cloned into pcDNA3.1 expression vectors. […] As controls human 5T4 and mouse 5T4-transfected cells were used. For flow cytometric analysis, cells were stained with different 5T4 antibodies diluted in FACS buffer (PBS, 0.5% BSA). […] Samples were analysed by FACSverse (BD Biosciences, Heidelberg, Germany) and % positive cells were determined. To compensate for variations in % 5T4 positive cells in the various transfected populations, binding levels were normalized within each chimera by dividing % positive cells for each clone with % positive cells for the clones resulting in the highest % positive cells (% pos cellscloneX/% positive cellsₘₐₓ). A normalized value ≤0.75 was defined as mAb binding being dependent on the replaced region, whereas a normalized value ≤0.25 was defined as complete dependence.

[6] = target: T7, human/mouse 5T4 chimera E2; test: flow cytometry, cells with human/mouse 5T4 chimera
T7 construct: on transfected CHO cells
Method: as §2

[7] = target: T8, human/mouse 5T4 chimera E3; test: flow cytometry, cells with human/mouse 5T4 chimera
T8 construct: on transfected CHO cells
Method: as §2

[8] = target: T9, human/mouse 5T4 chimera E4; test: flow cytometry, cells with human/mouse 5T4 chimera
T9 construct: on transfected CHO cells
Method: as §2

[9] = target: T10, human/mouse 5T4 chimera E5; test: flow cytometry, cells with human/mouse 5T4 chimera
T10 construct: on transfected CHO cells
Method: as §2

[10] = target: T11, human/mouse 5T4 chimera E6; test: flow cytometry, cells with human/mouse 5T4 chimera
T11 construct: on transfected CHO cells
Method: as §2

[11] = target: T12, human/mouse 5T4 chimera E7; test: flow cytometry, cells with human/mouse 5T4 chimera
T12 construct: on transfected CHO cells
Method: as §2

[12] = target: T4, cynomolgus 5T4 on transfected CHO cells; test: flow cytometry, cynomolgus 5T4-transfected CHO cells
Method: as §1

[13] = target: T5, 5T4 (SPR antigen); test: SPR Biacore 3000, amine-coupled 5T4, mAb injected (bivalent)
Method: Binding kinetics of the 5T4-specific mAbs have been studied using two different SPR-based platforms, the Biacore 3000 (GE Healthcare) and the MASS-1 platform (Sierra Sensors). Briefly, 5T4 was captured at the sensor chip surface either via direct amine coupling (Biacore platform) or using a streptavidin coated chip and biotinylated 5T4 (MASS-1 platform). The different 5T4-specific mAbs were then injected over the chip in increasing concentrations and the association and dissociation rates studied in real time. A 1:1 Langmuir model was used for curve fitting.

[14] = target: T1, 5T4-Fc; test: dual ELISA: coated 5T4-Fc, detection with CD137-bio
Method: Bispecific binding to both targets, CD137 and 5T4, was evaluated using a standard ELISA protocol. Plates (#655074, Greiner Bio-One GmbH, Germany) were pre-coated with 0.5 μg/ml 5T4-Fc (obtained from Professor Peter Stern, University of Manchester) overnight. CD137-5T4 bsAb were diluted from 8 to 2×10⁻³ μg/ml in 1:4 dilutions and added in duplicates of 50 μl to each well. CD137-bio (Ancell #502-030) was used as detection antibody at 0.5 μg/ml and the binding was detected with Streptavidin-HRP (Pierce #21126). The ELISA was developed with SuperSignal ELISA PICO Chemiluminescent substrate (Thermo Scientific Pierce, Rockford, Ill. USA) during 2-10 minutes and read in an automated microplate based multi-detection reader (FLUOstar OPTIMA, Netherlands).

| EC50 [1] | binding result [2] | EC50 [3] | Ratio EC50cyno5T4/h5T4 [4] | normalized % positive cells [5] | normalized % positive cells [6] | normalized % positive cells [7] | normalized % positive cells [8] | normalized % positive cells [9] | normalized % positive cells [10] | normalized % positive cells [11] | EC50 [12] | kon [13] | EC50 [14] | Binder |
| --- | --- | --- | --- | --- | --- | --- | --- | --- | --- | --- | --- | --- | --- | --- |
| 0.56 nM | no binding | 1.4 nM | 140 | 0.89 | 0.9 | 0.93 | 1 | 0.84 | 0.03 | 0.88 | 30.7 nM | 450000 M⁻¹ s⁻¹ |  | 1212/1213 (antibody, V domains shown) VH: EVQLLESGGGLVQPGGSLRLSCAASGFTFSSYAMSWVRQAPGKGLEWVSYISSYGGYTSYADSVKGRFTISRDNSKNTLYLQMNSLRAEDTAVYYCARYHSGVLDYWGQGTLVTVSS VL: DIQMTQSPSSLSASVGDRVTITCRASQSISSYLNWYQQKPGKAPKLLIYAASSLQSGVPSRFSGSGSGTDFTLTISSLQPEDFATYYCQQYYYHYLLTFGQGTKLEIK |
|  |  |  |  |  |  |  |  |  |  |  |  |  | 1.91 nM | 1626-1208 (bispecific antibody, Morrison format IgG-scFv) heavy: not shown light: DIQMTQSPSSLSASVGDRVTITCRASQSISSYLNWYQQKPGKAPKLLIYAASSLQSGVPSRFSGSGSGTDFTLTISSLQPEDFATYYCQQGTGYGPLTFGQGTKLEIKRTVAAPSVFIFPPSDEQLKSGTASVVCLLNNFYPREAKVQWKVDNALQSGNSQESVTEQDSKDSTYSLSSTLTLSKADYEKHKVYACEVTHQGLSSPVTKSFNRGEC |
|  |  |  |  |  |  |  |  |  |  |  |  |  | 0.4 nM | 1626-1210 (bispecific antibody, Morrison format IgG-scFv) heavy: not shown light: DIQMTQSPSSLSASVGDRVTITCRASQSISSYLNWYQQKPGKAPKLLIYAASSLQSGVPSRFSGSGSGTDFTLTISSLQPEDFATYYCQQGTGYGPLTFGQGTKLEIKRTVAAPSVFIFPPSDEQLKSGTASVVCLLNNFYPREAKVQWKVDNALQSGNSQESVTEQDSKDSTYSLSSTLTLSKADYEKHKVYACEVTHQGLSSPVTKSFNRGEC |
